Reference: the supplement of paper PMC12042874
± gives the uncertainty stated by the source.

Test: amyloid nucleation score (Sup35N fusion, yeast selection) (log enrichment); library NNK1; higher = more nucleation; inactive = no reads after selection
Outline: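 DiMSum was used to calculate nucleation scores as log enrichment of output over input reads, centred on the mode score of non-aggregating sequences. Sequences with fewer than 100 input reads were not scored. Input and output came from Illumina sequencing of plasmid inserts in psi-negative yeast expressing peptides of 20 random codons fused to Sup35N, induced 24 hours with 100 μM copper sulfate and then grown 7 days at 30°C on medium lacking adenine and uracil.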

Substance | amyloid nucleation score
TSFMEIVVLDAVGRQRRSSV | -0.106 ± 0.49
TSGFLPLKTKMF | 0.252 ± 0.8
TSGWCSRLQIIGLYLNVLVC | 5.47 ± 0.06
TSINWFRTVLYGVSLNYFWV | 0.345 ± 0.6
TSKSTLYSECVMWPVDPEPT | 0.273 ± 0.58
TSLPTAVWLKSARQWVEYGL | 1.18 ± 0.54
TSLRFLSVRS | 0.011 ± 0.49
TSMLDLN | -1.69 ± 1.8
TSMLSGSWSRPDPLTDSSGD | 0.517 ± 0.47
TSNSS | -1.07 ± 0.52
TSRGKDLSTRVGGGAPPGFR | -0.766 ± 1.6
TSSCLVYL | -0.413 ± 0.55
TSSTRILISTTELVRNYCYC | 1.37 ± 0.26
TSSVGMWGQWYSRWNSRKCN | -0.573 ± 1.7
TSTYWQVDEAV | -0.325 ± 0.52
TSYLLCMEQYYLKEISCRDS | 0.688 ± 0.38
TSYYRGFYKYAWNG | 0.21 ± 0.39
TTFFDLT | 0.713 ± 0.74
TTFFSGIYKKASLFYRHFVL | -0.812 ± 0.28
TTMILWQTQYDYLG | -0.247 ± 0.58
TTRFRNFKLRSH | inactive
TTVANTSAVFCEAVCKGMQK | 0.078 ± 0.99
TVFYMRPVGSGTGNLNLLQL | 0.906 ± 1
TVIGSSRGAPLIIKSGFIIE | 4.25 ± 0.056
TVMHSAMIYILVPVSGSGQV | 5 ± 0.064

Substance | amyloid nucleation score
TVMTRRSLWRTVGLNWVMLV | 1.53 ± 0.19
TVSDHPSFFCVYCADSSVGM | 7.439 ± 0.073
TVSLGEQFLFTIAVGYGDSD | inactive
TVTYRLYVPATVCFKILFRR | -0.625 ± 0.33
TVYYDSIRSMYGYGGGVASR | -0.344 ± 0.49
TWEFRYNFFYNVPRLQTYKI | -0.169 ± 0.42
TWPVLSDGQAGELRVRMGSA | 0.741 ± 0.88
TWSRAQM | inactive
TWTCDSVCCVRNKEVCGVYQ | 0.033 ± 0.23
TYERICGCMFCLTCSSDAF | -0.19 ± 0.71
TYGRASRALGDFRQITRVAS | -1.38 ± 1.7
TYLFSTVGVSGSSMSQVYIV | -0.387 ± 0.46
TYRFGCTLPLLRMCFIP | 0.435 ± 0.71
TYRKYLRVRTLDERHGSVYE | 0.147 ± 0.35
TYSPQLLYNYPLCLVFLSCL | 2.83 ± 0.15
TYTCVNPVGHFTGGNRGILW | 0.425 ± 1.1
TYTPRETTSTCSAYSFYMLK | 1.26 ± 0.15
TYTVGHYVAFWSRRVKSNES | 0.392 ± 0.67
TYVLTP | -0.454 ± 1.6
TYYVRCLGLLGLNPTFRSPR | 0.365 ± 0.36
VAFNICSENRLVNFR | -0.577 ± 0.4
VAKSRCYTQCGLGYLSRKLA | inactive
VALAIIRPY | -0.431 ± 0.27
VAQLRIKVCKDPGTWLQVHH | 1.48 ± 0.74
VATIQRISGIKQESAGSRTF | -0.07 ± 0.93

Substance | amyloid nucleation score
VAWLNCSTKVGL | -0.053 ± 1.3
VCAQFSRGRIFTAIVIGWTQ | 0.857 ± 0.64
VCCYILAYNMFGVLAEWLCG | 3.66 ± 0.069
VCESVNNAHAAYSAVLSVQM | -0.347 ± 0.54
VCFMKCLLSCAIEYSRRLDI | 1.9 ± 0.64
VCGGETLPRVVSNGGRSPRV | 0.602 ± 0.35
VCIIIVYRIYLSYMCPISY | -0.463 ± 0.37
VCLGLSQDLHKSYTVRSAT | -0.009 ± 0.41
VCNIPNFCQKQCLSFTTIRY | 2 ± 0.12
VCNWVSLGVALHRALEQLGI | -1.32 ± 0.92
VCRQMYVLDCYS | inactive
VCSLSVYRTCSRDLFNFIWV | 0.262 ± 0.41
VDCLGFLEHICGLGDIIKTK | 0.341 ± 0.25
VDCPIECTAAGRSHDSGV | 1.42 ± 0.63
VDGSSCFGCAGCTTRRFTSG | -0.253 ± 0.43
VDLALLYCDIKMQLV | 1.14 ± 0.88
VDLLGTTDGRSRVLFRIRTR | 0.151 ± 0.59
VDLNSGQSMNLGTYECRSNV | -1.49 ± 1.8
VDLPFMLAKVR | 0.856 ± 0.71
VDLSLLIMVFQFGGVGERLR | 2.15 ± 0.17
VDRCGFGVFATVGMSCMDSF | 0.918 ± 0.45
VDWSVAWHWLLSSD | 0.484 ± 0.49
VEIGFFQRHKARIFMGTRSL | -0.209 ± 0.34
VELQYDLYCFSSFADPLS | 1.29 ± 0.6
VENNWIWVGRTLNATLDSHQ | 0.082 ± 0.26

Substance | amyloid nucleation score
VERFDLHLSD | 1.06 ± 0.6
VESDKCQLGTLSIMYICFFL | inactive
VEYSVTCFLNYY | 5.71 ± 0.059
VFCSQGMADTLR | 0.409 ± 0.84
VFGLAV | -0.912 ± 1.1
VFGLLPVSSCIVRNRRDLRN | -0.371 ± 0.27
VFHNYFLRTYTNRRARSVSI | 2.86 ± 0.14
VFIYTAACP | 0.492 ± 0.45
VFLACNMMYDTKVQTHGYRG | 4.23 ± 0.07
VFLWDSHV | -0.505 ± 0.39
VFMSLESFYKYNYTHFFFRK | 0.114 ± 0.39
VFNTVVS | -0.161 ± 0.41
VFSLYSTQKLSRRVIGMLGL | 0.725 ± 0.81
VFYDVGGVSD | 0.03 ± 0.48
VGCVWAQEDRVPT | -0.715 ± 0.83
VGEQPYFGVFTTRYVMARYA | 0.487 ± 0.71
VGEQSCLLFYMKQ | 0.247 ± 0.29
VGFGQSHGVFRCGVMRLRRG | 0.192 ± 1.1
VGFNKL | 0.013 ± 0.6
VGFRVDFNIDLQLFLYRNEK | 0.334 ± 0.81
VGFVLFLANSERYCDRISFG | -0.13 ± 0.97
VGFYCHLCGYLVWGRWKHSA | 1.18 ± 0.97
VGIGLSFQTEQSVCTDLLYS | -0.203 ± 0.69
VGLLKAAEDGVLRIGVRRSW | 0.631 ± 0.8
VGLNMLKNFNPDLSAKDITH | -0.176 ± 1.1

Substance | amyloid nucleation score
VGRSQRMQKTLKVSVWYWIN | 0.117 ± 0.7
VGRYFTMCFYKSMHRCRRVF | 0.266 ± 0.38
VGTTLRFWGKLFNPVDKAIR | -0.619 ± 0.46
VHCLLAGRKMNFGLFCINVQ | -0.025 ± 0.68
VHFEGFWAFTLVDLT | 0.232 ± 0.48
VHFRYNIVTVSPQVIKFFST | 5.36 ± 0.071
VHLTSPYHCRVPDMNSCYGS | 0.371 ± 0.91
VHRIYKCALRVSRADSLIVT | inactive
VHRQMEMIIKIVWTRAYAFT | 2.33 ± 0.6
VHTMSLWCDISQLIVPVNRV | 1.1 ± 0.52
VIAMDNDRYFGSVFSYIRMN | -0.147 ± 0.29
VIASELSSCFSLRHNVVTTS | -0.469 ± 1.2
VIDYVGFRHTGGGSVGFVGG | -0.387 ± 0.65
VIGLSQWVNSLSYRFEMQNL | 4.72 ± 0.094
VIGSCRTCMS | 0.135 ± 0.3
VIGVRAQYLCRHTLSVRYRK | 1.67 ± 0.4
VILSYCLIFLK | -0.647 ± 0.48
VIMCYR | -0.309 ± 0.29
VIPVLWAVLWEAIIYEEGGA | 0.778 ± 0.22
VIQEPKFMYLQLFVGLPCVS | 4.51 ± 0.09
VISVNLGFFPSFVIRASVAS | 5.45 ± 0.079
VIVARQFISPSVYGDAMDHS | 1.15 ± 0.97
VIVVVPLFGGRLCRVVRHR | 0.278 ± 0.62
VIWSNWRRRVPEGPDERYKR | 0.649 ± 0.46
VKCPVGDDHWGSRGDASVIT | -0.004 ± 0.8
